# Test results taken from PMC8626477.
# Tests used:
# [1] = biological target: E2 of the Chaetomium thermophilum pyruvate dehydrogenase complex (PDHc) (Chaetomium thermophilum); assay: cryo-EM structure; native C. thermophilum cell extract, SEC fraction 6, vitrified at 0.3 mg/mL total protein; 10249 particles; reconstructions with icosahedral (3.85 Å), C2 (6.21 Å) and C1 (7.62 Å) symmetry
# [2] = biological target: E3BP of the Chaetomium thermophilum pyruvate dehydrogenase complex (PDHc) (Chaetomium thermophilum); assay: as above
Substance,stoichiometry N [1],stoichiometry N [2]
E2 of the Chaetomium thermophilum pyruvate dehydrogenase complex (PDHc) (enzyme),60,–
E3BP of the Chaetomium thermophilum pyruvate dehydrogenase complex (PDHc) (natural protein),12,3
